The values below are quoted from earlier work in article PMC6047922.

This series concerns the target ttRNH* Icore (Thermus thermophilus) (UniProt Q72IE1). Description: analytical ultracentrifugation.

Usually Kd stands for the free concentration of one partner at which half of the binding sites on the other are occupied at equilibrium, for simple one-to-one binding. On to ttRNH* Icore (from UniProt Q72IE1), for which the Kd is 150 µM.
